{
  "source": "patent US9408922B2",
  "about": "“Anti-tofacitinib antibodies and uses thereof for drug monitoring” (Pfizer Inc., priority 2012, dated 2016)",
  "molecules": {"B1": {"name": "12H4.G2: mouse monoclonal anti-tofacitinib antibody; VH SEQ ID NO:8, VL SEQ ID NO:9 (antibody, listed as Mus musculus, V domains shown)", "VH": "DVQLQGSGPDLVKPSQSLSLTCTVTGYSITSGYSWNWIRQFPGNTLEWMGFIHYSGSTNYNPSLKSRISITRDTSKNQFFLQLNSVTTEDTATYYCVRGPYGSSFYWGQGTTLTVSS", "VL": "QAVVTQESALTTSPGETVTLTCRSSTGAVTTSNYATWVQEKPDHLFTGLIGGTNNRAPGVPARFSGSLIGDKAALTLTGAQTEDEAIYFCALWYSNHWVFGGGTKLTVL"}, "B2": {"name": "10A6.C5: mouse monoclonal anti-tofacitinib antibody; VH SEQ ID NO:3, VL SEQ ID NO:4 (antibody, listed as Mus musculus, V domains shown)", "VH": "B1 VH with G6E, F51Y", "VL": "NIVMTQSPKSMSMSVGERVTLTCKASENVVTYVSWYQQKPEQSPKLLIYGASNRYTGVPDRFTGSGSATDFTLTISSVQAEDLADYHCGQGYSYPYTFGGGTKLEIKR"}, "B3": {"name": "16F10.E6: mouse monoclonal anti-tofacitinib antibody; VH SEQ ID NO:10, VL SEQ ID NO:11 (antibody, listed as Mus musculus, V domains shown)", "VH": "B1 VH with V2M, G6E, F51Y, S57N, N59V, I68L", "VL": "DIVMTQSQKFMSTSVGDRVSVTCKASQNVGTNVAWYQQKPGQSPKALIYSASYRYSGVPDRFTGSGSGTDFTLTISNVQSEDLAEYFCQQYYNYPLTFGAGTKLELKR"}, "B4": {"name": "5A3.E5: mouse monoclonal anti-tofacitinib antibody; VH SEQ ID NO:1, VL SEQ ID NO:2 (antibody, listed as Mus musculus, V domains shown)", "VH": "EVKLVESGGGLVQPGGSLRLSCATSGFTFNDYYMTWVRQPPGKALEWLGFIRNKADGYTPYYSPSVKGRFTISRDNSQSILYLQMNTLRTEDSATYYCARPHYYGFPFGYWGQGTLVTVSA", "VL": "B1 VL with S32N, T36N, N55S, L77I, I87M"}, "B5": {"name": "10F10.H5: mouse monoclonal anti-tofacitinib antibody; VH SEQ ID NO:5, VL SEQ ID NO:6 (antibody, listed as Mus musculus, V domains shown)", "VH": "B1 VH with G6E, F51Y, S57T, T88A, V97A, T114A", "VL": "QIVLTQSPAIMSASPGEKVTVTCSASSSVSSMHWFQQKPGTSPKLWIYSTSNLASGVPTRFSGSGSGTSYSLTISRMEAEDVATYYCQQRNNYPYTFGGGTKLEIKR"}, "B6": {"name": "12D4.G6: mouse monoclonal anti-tofacitinib antibody; VH SEQ ID NO:12, VL SEQ ID NO:4 (antibody, listed as Mus musculus, V domains shown)", "VH": "QVQLKESGPGLVAPSQSLSITCTVSGFSLSIYSVHWVRQPPGKGLEWLGMIWGGGNTDYNSVLKSRLSISKDNSKSQVFLKVNSLQTDDTAMYYCARIYYGIFWGQGTLVTVSA", "VL": "B2 VL"}, "B7": {"name": "6D9.A5: mouse monoclonal anti-tofacitinib antibody; VH SEQ ID NO:7, VL SEQ ID NO:4; replacement subclone for 6D9.A8 (antibody, listed as Mus musculus, V domains shown)", "VH": "B6 VH with Q16E, S19T, I31R, V34I, N56S, S68T, S70R, N73Y, V82M, F103Y", "VL": "B2 VL", "notes": "mouse monoclonal anti-tofacitinib antibody; replacement subclone for 6D9.A8"}},
  "format_in_all_cases": "binding",
  "key": {"[1]": {"experiment": "Competitive immunoassay-3 with Metabolite 1 as competitor (Example 7)", "details": "for 4-P Fit parameter C, Concentration vs % B/B0: Metabolite 1 as competitor, biotinylated tofacitinib 1 ng/ml; for cross reactivity to metabolite 1 (in words, FIG. 3): competitive immunoassay", "experimental": "(§1) After washing the plates, 200 μl of streptavidin-HRP (50 ng/ml) was added and the plates were then incubated for 0.5-1 hour at room temperature. After washing the plates again, 200 μl of TMB (3,3′,5,5′-Tetramethylbenzidine) substrate was added, then color developed for 30 minutes, and the reaction was stopped by adding 50 μl 2 N sulfuric acid. Absorbance at 450 nm was measured.\nFor this example, eleven anti-tofacitinib monoclonal antibodies were screened for cross reactivity with metabolite 1 using competitive immunoassay. […] After washing the plates, 200 μl of streptavidin-HRP (50 ng/ml) was added and then incubated for 0.5-1 hour at room temperature. After washing the plates again, 200 μl of TMB substrate was added, then developed for 30 minutes, and stopped by adding 50 μl 2 N sulfuric acid. Absorbance at 450 nm was measured."}, "[2]": {"experiment": "Cross reactivity competitive ELISA with Metabolite 2 (Example 9)", "details": "metabolite 200,000 to 200 ng/ml; antibody at EC50 dilution", "experimental": "(§2) Two clones, 6D9.A8 and 12D4.G6, were tested for cross reactivity to metabolites 1 and 2. In this experiment, the metabolites were prepared at concentrations of 200,000 to 200 ng/ml and the antibody clones were prepared at their EC50 dilutions shown in Table 1."}, "[3]": {"experiment": "Antigen competition immunoassay, unlabeled tofacitinib vs biotinylated tofacitinib (Example 8)", "experimental": "as §1, with “and” for “and the plates were”, “TMB” for “TMB (3,3′,5,5′-Tetramethylbenzidine)”, “then” for “then color”, “and” for “and the reaction was”, “2N” for “2 N”"}, "[4]": {"experiment": "Antigen ED50 in cross reactivity experiment (Example 9)", "details": "antibody at EC50 dilution; biotinylated tofacitinib 1 ng/mL", "experimental": "as §2"}, "[5]": {"experiment": "Cross reactivity to Metabolite 1, competitive immunoassay-3 or direct ELISA (Example 12)", "details": "for Metabolite 1 Cross reactivity: Table 10", "experimental": "as §1"}, "[6]": {"experiment": "Standard curve with tofacitinib, ELISA (Example 10)", "details": "biotinylated tofacitinib 1 ng/ml", "from_the_text": "FIG. 4 is a graph depicting optimal dilution ranges of select monoclonal antibodies of the invention, e.g., 6D9.A8 (open circles) and 12D4.G6 (open squares) as determined by ELISA."}, "[7]": {"experiment": "Cross reactivity competitive ELISA with Metabolite 1 (Example 9)", "details": "metabolite 200,000 to 200 ng/ml; antibody at EC50 dilution", "experimental": "as §2"}, "[8]": {"experiment": "Tofacitinib dose response curves with antibody clones (Example 12)", "details": "for Antigen ED50: Table 10; for Tofacitinib ED50: tofacitinib 0.001 to 1000 ng/ml, antibody dilution 1:25,600 (6D9.A5), 1:4,000 (6D9.A8), 1:22,000 (12D4.G6); for 4-P Fit parameter C, Concentration vs % B/B0: tofacitinib standard curve", "from_the_text": "Further, the data used to generate the graph shown in FIG. 5 are set forth below in Table 9."}, "[9]": {"experiment": "Cross reactivity to Metabolite 2, competitive immunoassay-3 or direct ELISA (Example 12)", "details": "for Metabolite 2 Cross reactivity: Table 10", "experimental": "as §1"}, "[10]": {"details": "unlabeled tofacitinib 1000 to 0.001 ng/ml, antibody at EC50 dilution"}},
  "note": "Positions count from the first letter of the chain named.",
  "data": [
    {"molecule": "B1", "values": [
      {"measurement": "4-P Fit parameter C, Concentration vs % B/B0", "setting": "[1]", "result": 0.383},
      {"measurement": "cross reactivity to metabolite 1 (in words, FIG. 3)", "setting": "[1]", "result": "did not detectably bind metabolite 1"}
    ]},
    {"molecule": "B2", "values": [
      {"measurement": "4-P Fit parameter C, Concentration vs % B/B0", "setting": "[1]", "result": 0.389},
      {"measurement": "cross reactivity to metabolite 1 (in words, FIG. 3)", "setting": "[1]", "result": "did not detectably bind metabolite 1"}
    ]},
    {"molecule": "B3", "values": [
      {"measurement": "cross reactivity to metabolite 1 (in words, FIG. 3)", "setting": "[1]", "result": "did not detectably bind metabolite 1"}
    ]},
    {"molecule": "B4", "values": [
      {"measurement": "4-P Fit parameter C, Concentration vs % B/B0", "setting": "[1]", "result": 0.191},
      {"measurement": "cross reactivity to metabolite 1 (in words, FIG. 3)", "setting": "[1]", "result": "did not detectably bind metabolite 1"}
    ]},
    {"molecule": "B5", "values": [
      {"measurement": "4-P Fit parameter C, Concentration vs % B/B0", "setting": "[1]", "result": 0.345},
      {"measurement": "cross reactivity to metabolite 1 (in words, FIG. 3)", "setting": "[1]", "result": "did not detectably bind metabolite 1"}
    ]},
    {"molecule": "B6", "values": [
      {"measurement": "Metabolite-2 Cross reactivity", "setting": "[2]", "result": 0.15, "unit": "%"},
      {"measurement": "competition by unlabeled tofacitinib for binding to biotinylated tofacitinib (in words)", "setting": "[3]", "result": "competition was seen"},
      {"measurement": "ED20", "setting": "[3]; [10]", "result": 0.457, "unit": "µg/mL"},
      {"measurement": "ED50", "setting": "[3]; [10]", "result": 0.104, "unit": "µg/mL"},
      {"measurement": "ED80", "setting": "[3]; [10]", "result": 0.024, "unit": "µg/mL"},
      {"measurement": "Antigen ED50", "setting": "[4]", "result": 0.152, "unit": "µg/mL"},
      {"measurement": "binding of metabolite 1 (in words)", "setting": "[5]", "result": "did not substantially bind"},
      {"measurement": "Metabolite 1 Cross reactivity", "setting": "[5]", "result": 4.17, "unit": "%"},
      {"measurement": "4-P Fit parameter C", "setting": "[6]", "result": 109},
      {"measurement": "4-P Fit parameter C, Concentration vs % B/B0", "setting": "[1]", "result": "2.14 × 10^7"},
      {"measurement": "cross reactivity to metabolite 1 (in words, FIG. 3)", "setting": "[1]", "result": "did not detectably bind metabolite 1"},
      {"measurement": "Metabolite-1 Cross reactivity", "setting": "[7]", "result": 4.17, "unit": "%"},
      {"measurement": "Antigen ED50", "setting": "[8]", "result": 118, "unit": "ng/mL"},
      {"measurement": "Tofacitinib ED50", "setting": "[8]", "result": 0.118, "unit": "µg/mL"},
      {"measurement": "4-P Fit parameter C, Concentration vs % B/B0", "setting": "[8]", "result": 108},
      {"measurement": "binding of metabolite 2 (in words)", "setting": "[9]", "result": "did not substantially bind"},
      {"measurement": "Metabolite 2 Cross reactivity", "setting": "[9]", "result": 0.15, "unit": "%"}
    ]},
    {"molecule": "B7", "values": [
      {"measurement": "binding of metabolite 1 (in words)", "setting": "[5]", "result": "did not substantially bind"},
      {"measurement": "Metabolite 1 Cross reactivity", "setting": "[5]", "result": 4.47, "unit": "%"},
      {"measurement": "cross reactivity to metabolite 1 (in words, FIG. 3)", "setting": "[1]", "result": "did not detectably bind metabolite 1"},
      {"measurement": "binding of the parent drug, potency compared with antibody 12D4.G6 (in words)", "setting": "[8]", "result": "more potent binders of the parent drug"},
      {"measurement": "Antigen ED50", "setting": "[8]", "result": 244, "unit": "ng/ml ng/mL"},
      {"measurement": "Tofacitinib ED50", "setting": "[8]", "result": 0.244, "unit": "µg/mL"},
      {"measurement": "4-P Fit parameter C, Concentration vs % B/B0", "setting": "[8]", "result": 224},
      {"measurement": "binding of metabolite 2 (in words)", "setting": "[9]", "result": "did not substantially bind"},
      {"measurement": "Metabolite 2 Cross reactivity", "setting": "[9]", "result": "<0.01", "unit": "%"}
    ]}
  ]
}
